# Paper PMC3675491 (Nucleic Acids Research, 2013)
# T1: σ^HrdB (purified protein, 55.9 kDa) (S. coelicolor, UniProt P18183 1-511)
# T1 sequence: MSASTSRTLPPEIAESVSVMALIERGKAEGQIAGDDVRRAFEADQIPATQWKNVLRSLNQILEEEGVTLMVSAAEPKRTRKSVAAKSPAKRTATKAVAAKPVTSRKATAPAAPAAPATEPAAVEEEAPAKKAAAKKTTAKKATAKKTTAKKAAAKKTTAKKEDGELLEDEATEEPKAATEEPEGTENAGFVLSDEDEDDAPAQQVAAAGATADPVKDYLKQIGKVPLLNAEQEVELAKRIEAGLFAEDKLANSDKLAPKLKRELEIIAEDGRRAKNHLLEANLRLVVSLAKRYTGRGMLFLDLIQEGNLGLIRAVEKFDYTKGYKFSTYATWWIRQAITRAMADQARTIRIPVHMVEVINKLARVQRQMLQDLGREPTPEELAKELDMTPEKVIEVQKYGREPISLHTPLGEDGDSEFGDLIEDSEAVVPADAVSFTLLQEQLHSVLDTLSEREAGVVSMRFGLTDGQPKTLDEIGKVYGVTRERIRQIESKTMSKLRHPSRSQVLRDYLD
# T2: His6-σ^HrdB σ2 fragment (amino acids 211–347) (S. coelicolor, UniProt P18183 211-347)
# T2 sequence: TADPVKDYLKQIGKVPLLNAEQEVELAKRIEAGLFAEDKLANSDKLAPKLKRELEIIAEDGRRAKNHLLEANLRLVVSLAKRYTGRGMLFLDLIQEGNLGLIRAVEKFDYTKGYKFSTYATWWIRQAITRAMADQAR
# T3: His6-σ^HrdB σ2–σ4 fragment (amino acids 211–511) (S. coelicolor, UniProt P18183 211-511)
# T3 sequence: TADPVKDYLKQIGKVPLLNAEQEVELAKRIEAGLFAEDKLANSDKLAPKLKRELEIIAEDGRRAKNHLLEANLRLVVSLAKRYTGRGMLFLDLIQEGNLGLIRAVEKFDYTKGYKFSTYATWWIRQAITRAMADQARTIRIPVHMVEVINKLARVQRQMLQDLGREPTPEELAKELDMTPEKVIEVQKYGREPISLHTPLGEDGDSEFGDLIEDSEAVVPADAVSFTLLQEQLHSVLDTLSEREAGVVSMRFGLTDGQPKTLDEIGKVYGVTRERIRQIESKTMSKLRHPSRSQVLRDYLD
# B1: RbpA^Sc (native, untagged purified protein, 14.1 kDa) (natural protein)
# chain: MSERALRGTRLVVTSYETDRGIDLAPRQAVEYACEKGHRFEMPFSVEAEIPPEWECKVCGAQALLVDGDGPEEKKAKPARTHWDMLMERRTREELEEVLEERLAVLRSGAMNIAVHPRDSRKSA
# How the values were obtained:
# SEC = target: the molecule itself; test: SEC
# [1] = target: T1, σ^HrdB (purified protein, 55.9 kDa); test: SEC
# [2] = target: T2, His6-σ^HrdB σ2 fragment (amino acids …); test: […]
# [3] = target: T3, His6-σ^HrdB σ2–σ4 fragment (amino acids …); test: […]
binder,measurement,setting,value
B1,stoichiometry N,SEC,2
same,binding result,[1],binds
same,binding result,[2],binds
same,binding result,[3],binds
